Assay [1] addresses T1, Cynomolgus OSM (cynomolgus, UniProt A0A2K5VPC6 26-221).
T1 construct: also called Cyno OSM; cynomolgus macaque OSM
T1 sequence: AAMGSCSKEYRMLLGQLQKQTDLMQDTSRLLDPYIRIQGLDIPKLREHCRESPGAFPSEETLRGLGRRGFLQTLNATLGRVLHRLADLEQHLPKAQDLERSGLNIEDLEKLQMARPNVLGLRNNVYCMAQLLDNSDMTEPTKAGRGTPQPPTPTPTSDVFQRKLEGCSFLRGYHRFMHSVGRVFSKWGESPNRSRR
As to the kind of experiment: BIAcore kinetics, transfection supernatant.

The target of assay [2] is T2, Human OSM (human, UniProt P13725 26-221).
T2 construct: Recombinant human OSM; also called hOSM; human Oncostatin M
T2 sequence: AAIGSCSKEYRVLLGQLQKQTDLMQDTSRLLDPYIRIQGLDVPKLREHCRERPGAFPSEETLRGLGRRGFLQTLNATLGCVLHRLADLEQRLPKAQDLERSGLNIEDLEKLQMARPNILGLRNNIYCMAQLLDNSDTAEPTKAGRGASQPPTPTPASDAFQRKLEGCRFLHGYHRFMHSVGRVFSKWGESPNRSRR
As to the kind of experiment: BIAcore kinetics, transfection supernatant. (Surface plasmon resonance follows binding to a sensor surface in real time, without labels.)

Assay [3] deals with T3, Endogenous human OSM (neutrophil-derived) (human, UniProt P13725 26-221, limits assumed).
T3 construct: Native OSM generated from GM-CSF stimulation of healthy human neutrophils; also called native OSM; endogenous OSM
T3 sequence: T2 sequence
Briefly: gp130 ELISA with endogenous neutrophil-derived human OSM.

Assay [4] has as its target T2, Human OSM. As to the kind of experiment: BIAcore kinetics, transfection supernatant. The source holds these as a separate data set.
For assay [5], the target named is T1, Cynomolgus OSM. As to the kind of experiment: cell-based or functional assay.
The target of assay [6] is Marmoset OSM (marmoset). Briefly: cell-based or functional assay.
The target of assay [7] is T2, Human OSM. As to the kind of experiment: cell-based or functional assay.
The target of assay [8] is T1, Cynomolgus OSM. Briefly: cell-based or functional assay. The source holds these as a separate data set.
Assay [9] concerns the target T2, Human OSM. As to the kind of experiment: cell-based or functional assay. This is another data set of the same source.
Assay [10] deals with T1, Cynomolgus OSM. As to the kind of experiment: cell-based or functional assay. The source holds these as a separate data set.
For assay [11], the target named is T2, Human OSM. Briefly: cell-based or functional assay. This is another data set of the same source.
For assay [12], the target named is T1, Cynomolgus OSM. As to the kind of experiment: BIAcore kinetics, purified antibody.
Assay [13] concerns the target T2, Human OSM. As to the kind of experiment: BIAcore kinetics, purified antibody.
In assay [14] the target is T1, Cynomolgus OSM. As to the kind of experiment: BIAcore kinetics, purified antibody. The source holds these as a separate data set.
Assay [15] concerns the target T2, Human OSM. Briefly: BIAcore kinetics, purified antibody. The source holds these as a separate data set.
Assay [16] addresses T1, Cynomolgus OSM. Briefly: BIAcore kinetics, purified antibody. This is another data set of the same source.
In assay [17] the target is T2, Human OSM. Briefly: BIAcore kinetics, purified antibody. The source holds these as a separate data set.
For assay [18], the target named is T2, Human OSM. Briefly: SPR (ProteOn XPR36 or Biacore T100), captured supernatant, OSM as analyte; hatched cell: separate experiment. The method, then: The initial kinetic analyses for the CDRH3 screen were carried out on the ProteOn XPR36 (Biorad Laboratories) and certain supernatants were selected for more accurate kinetic analysis on the BiaCore T100.
For the ProteOn analysis, anti-human IgG (GE Healthcare/Biacore BR-1008-39) was coupled to a GLM chip (Biorad Laboratories 176-5012) by primary amine coupling. The CDRH3 variants were captured directly on to this surface and recombinant human OSM was passed over the captured antibody surface at 256, 64, 16, 4 and 1 nM, with a buffer injection alone (i.e. 0 nM) used to double reference the binding curves. Following the OSM binding event, the capture surfaces were regenerated: with 3M MgCl₂ the regeneration removed the previously captured antibody ready for another cycle of capture and binding analysis. The data was then fitted to the 1:1 model (with mass transport) inherent to the ProteOn analysis software. The run was carried out using HBS-EP (Biacore/GE-Healthcare BR-1006-69) and the analysis temperature was 25° C.
A similar method was used for analysis of constructs using the Biacore T100, anti-human IgG (GE Healthcare/Biacore BR-1008-39) was coupled to a CM5 chip (GE Healthcare/Biacore BR-1006-68) by primary amine coupling, antibodies were captured on this surface and recombinant human OSM was passed over the captured antibody surface at 256, 64, 16, 4 and 1 nM, with a buffer injection alone (i.e. 0 nM) used to double reference the binding curves. Regeneration was by using pulses of 3M 3M MgCl₂ or 100 mM phosphoric acid or using both reagents. The data was fitted to the 1:1 model inherent to the Biacore T100 analysis software. The run was carried out using HBS-EP (Biacore/GE-Healthcare BR-1006-69) and the analysis temperature was 25° C.

Assay [19] addresses T1, Cynomolgus OSM. As to the kind of experiment: cell-based or functional assay. The source holds these as a separate data set.
Assay [20] has as its target T2, Human OSM. Briefly: cell-based or functional assay. This is another data set of the same source.
The target in assay [21] is T1, Cynomolgus OSM. Briefly: human gp130 ELISA, inhibition of OSM binding to gp130. In general terms: ELISA stands for enzyme-linked immunosorbent assay.
For assay [22], the target named is T2, Human OSM. Described as above.
For assay [23], the target named is T1, Cynomolgus OSM. As to the kind of experiment: BIAcore kinetics.
Assay [24] has as its target T2, Human OSM. Briefly: BIAcore kinetics.

Results on 10 molecules are retold here after US20130251724A1 (GlaxoSmithKline, published 2013).

In general, Kd refers to the equilibrium constant for the complex coming apart. Low values mean higher affinity, high ones lower affinity. The koff is the first-order rate constant of dissociation. High values mean fast dissociation, low ones slow dissociation. Broadly, the kon is the rate constant with which the complex forms. A high value points to fast association. The term IC50 denotes the concentration that gives 50% inhibition. Low values mean inhibition by little substance, high ones a need for much substance.

Residue numbers refer to the chain shown, from its start. Numbers in names are those of the source. Where “and” joins values, the source holds several entries; their conditions need not be identical. Equal entries are not always repeated. Where two headings read alike, the source gives them in different places.

B1: Humanised 10G8 H0L1 (antibody, human IgG1, kappa, V domains shown)
VH: EVQLVESGGGLVQPGGSLRLSCAASGFTFSNYAMSWVRQAPGKGLEWVATISDGGSFTYYLDNVRGRFTISRDNAKNSLYLQMNSLRAEDTAVYYCARDVGHTTFWYFDVWGRGTLVTVSS
VL: DIVMTQSPDSLAVSLGERATINCRASKSVSAAGYNFMHWYQQKPGQPPKVLIYYASNLESGVPDRFSGSGSGTDFTLTISSLQAEDVAVYYCLHSREFPFTFGGGTKVEIKR
notes: IgG1 kappa; mature H0 heavy chain and mature L1 light chain; also called Humanised 10G8 H0L1 parent
In the case of B1, the Kd in assay [1] was 0.301 nM; in [2] it was 0.461 nM; in assay [4] it was 0.25 nM; in assay [12], 0.195 nM; in [13], 0.125 nM; in [14], 0.251 nM. The Kd in [15] was 0.355 nM; in assay [16], 0.341 nM; in assay [17] it was 0.445 nM. The off-rate constant (koff) was 0.000104 s⁻¹ in [1]; 0.000153 s⁻¹ in assay [2]; 9.95e-05 s⁻¹ in [4]; 8.31e-05 s⁻¹ in [12]; 8.9e-05 s⁻¹ in assay [13]; 0.000107 s⁻¹ in [14]. In addition, the koff worked out at 0.000137 s⁻¹ in [15], 0.000115 s⁻¹ in assay [16] and 0.000151 s⁻¹ in assay [17]. Besides, the kon in assay [1] was determined as 345000 M⁻¹ s⁻¹; in [2], 332000 M⁻¹ s⁻¹; in [4] it was 398000 M⁻¹ s⁻¹; in [12] it was 427000 M⁻¹ s⁻¹; in assay [13], 712000 M⁻¹ s⁻¹; in [14], 426000 M⁻¹ s⁻¹. Besides, the values for the kon in assay [15], in [16] and in assay [17] were 387000 M⁻¹ s⁻¹, 338000 M⁻¹ s⁻¹ and 340000 M⁻¹ s⁻¹, respectively. The concentration for half-maximal inhibition (IC50) in assay [3] was 0.0058 µg/mL and 0.039 nM. For the same molecule, the “KB cell neutralisation assay, mean IC50” value in [5] is 0.0014 µg/ml and 9 pM; in assay [6], 0.0017 µg/ml and 11 pM; in assay [7], 0.0028 µg/ml and 19 pM; in assay [8] it was 0.007 µg/ml and 47 pM; in assay [9], 0.009 µg/ml and 60 pM; in [10], 0.007 µg/ml and 21 pM. Besides, the “KB cell neutralisation assay, mean IC50” value in assay [11] was 0.015 µg/ml and 102 pM.

B2: Humanised 10G8 H1L1 (antibody, V domains shown)
VH: B1 VH with V2M
VL: DIVMTQSPDSLAVSLGERATINCRASKSVSAAGYNFMHWYQQKPGQPPKVLIYYASNLESGVPDRFSGSGSGTDFTLTISSLQAEDVAVYYCLHSREFPFTFGGGTKVEIK
On to B2, for which the Kd in assay [4] stood at 0.25 nM; in assay [14], 0.258 nM; in assay [15], 0.443 nM. For the same molecule, the koff in assay [4] worked out at 9.99e-05 s⁻¹; in assay [14] it was 0.00011 s⁻¹; in assay [15], 0.000166 s⁻¹. Further, the kon in [4] came out at 400000 M⁻¹ s⁻¹; in assay [14], 428000 M⁻¹ s⁻¹; in [15] it was 375000 M⁻¹ s⁻¹. For the same molecule, the “KB cell neutralisation assay, mean IC50” value in [10] was 0.01 µg/ml and 67 pM; in assay [11], 0.013 µg/ml and 83 pM.

B3: Pos 98 Met (antibody, V domains shown)
VH: B1 VH with N31S, H102M
VL: B1 VL
notes: also called CDRH3 H98>M
Turning to B3, the affinity in assay [18], expressed as Kd, was 6.93 nM.

B4: Pos 99 Met (antibody, V domains shown)
VH: B1 VH with N31S, T103M
VL: B1 VL
notes: also called CDRH3 T99>M
In the case of B4, binding in assay [18] was put at a Kd of 1.62 nM.

B5: Pos 99 His (antibody, V domains shown)
VH: B1 VH with N31S, T103H
VL: B1 VL
notes: also called CDRH3 T99>H
With B5, the Kd in [18] stood at 15.6 nM.

B6: Pos 100B His (antibody, V domains shown)
VH: B1 VH with N31S, W106H
VL: B1 VL
notes: also called CDRH3 W100B>H
In assay [18], B6 yielded a Kd of 36.2 nM.

B7: Pos 100B Met (antibody, V domains shown)
VH: B1 VH with N31S, W106M
VL: B1 VL
notes: also called CDRH3 W100B>M
Molecule B7 showed a Kd in [18] of 40.3 nM.

B8: Humanised 10G8 H0L1(IGKV4-1) (antibody, V domains shown)
VH: B1 VH
VL: B2 VL with Y54W, N57T, L58R
notes: built from the stated exchange of CDRL2; residue limits derived by me; Human gamma 1/kappa constant regions; also called H0L1(huCDRL2)
In [1], B8 gave an equilibrium dissociation constant (Kd) of 1.41 nM, a koff of 0.000212 s⁻¹ and an on-rate constant (kon) of 150000 M⁻¹ s⁻¹. In assay [2], this molecule registered an equilibrium dissociation constant (Kd) of 1.37 nM, a koff of 0.000221 s⁻¹ and a kon of 161000 M⁻¹ s⁻¹. Further, the “KB cell neutralisation assay, mean IC50” value in assay [8] was 0.081 µg/ml and 540 pM. For the same molecule, the “KB cell neutralisation assay, mean IC50” value in [9] is 0.054 µg/ml and 360 pM.

B9: Humanised 10G8 H0(IGHV3-23)L1(IGK4-1) (antibody, V domains shown)
VH: B1 VH with N31S
VL: B2 VL with Y54W, N57T, L58R
notes: built from the stated exchange of CDRL2; residue limits derived by me; also called H0 IGHV3_23 + L1 IGKV4_1; H0(huCDRH1)L1(huCDRL2)
For B9, in assay [1], binding was put at a Kd of 1.47 nM, the koff came out at 0.000223 s⁻¹ and the kon is 152000 M⁻¹ s⁻¹. Further, in assay [2], binding was characterised by a dissociation constant (Kd) of 1.56 nM, the off-rate constant (koff) came to 0.000247 s⁻¹ and the on-rate (kon) came out at 159000 M⁻¹ s⁻¹. The “KB cell neutralisation assay, mean IC50” value in assay [8] was 0.114 µg/ml and 760 pM. Further, the “KB cell neutralisation assay, mean IC50” value in assay [9] was 0.077 µg/ml and 513 pM.

B10: 3E3, murine anti-OSM mAb (antibody, V domains shown)
VH: EVQLVESGGDLVKPGGSLKLSCVPSGFTFSSYAMSWVRQTPEKRLEWVATISDGGSFTYYFANIQGRFTISRDNTKNNLYLQMNHLKSEDAGMYYCARDVGLTTFWYFDVWGTGTTVTVSS
VL: DIVLTQSPASLTISLGQRATISCRASKSVSPSGYDFMHWYQQKPGQPPKLLIKYASELESGVPGRFSGSGSGTDFTLNIHPVEEEDAATYFCQHSREFPFTFGGGTKLEIK
notes: Mouse hybridoma mAb; also called 3E3/A1; 3E3.A1
B10: the “KB cell neutralisation assay, mean IC50” value in assay [19] is 0.15 µg/ml and 1 nM; in assay [20], 0.054 µg/ml and 360 pM. Further, the half-maximal inhibitory concentration (IC50) in assay [21] is 0.06 µg/mL and 0.4 nM; in assay [22], 0.19 µg/mL and 1.3 nM. Besides, the Kd is 3.28 nM in assay [23] and 1.3 nM in [24].
